Experimental data: US20090197801A1

Target: recombinant erythropoietin receptor (EPOR-Fc)
Experiment: SPR; Epo 3 peptide ionically bound to the chip, soluble recombinant EPOR-Fc as analyte; three independent experiments

Chain of recombinant erythropoietin receptor (EPOR-Fc) (P19235 25-250): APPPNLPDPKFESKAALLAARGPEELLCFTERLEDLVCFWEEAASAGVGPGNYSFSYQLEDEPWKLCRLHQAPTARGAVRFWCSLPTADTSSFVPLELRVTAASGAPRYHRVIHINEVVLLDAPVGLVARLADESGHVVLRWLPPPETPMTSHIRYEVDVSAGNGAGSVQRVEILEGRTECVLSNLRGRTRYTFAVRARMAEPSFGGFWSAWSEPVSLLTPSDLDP

B1: Epo3 peptide (Epo-peptide 3) (peptide)
peptide: QLHVDKAVSGLRSLTTLLRA
Kd: 4.48 nM
